# Measured values from patent US10370642B2, “Hematopoietic progenitor cell populations having affinity for E-selectin / L-selectin” (priority 2000, dated 2019).
# Experiments:
# L-selectin [1] = molecular target: T1, L-selectin (Rattus norvegicus, UniProt P30836); assay: Stamper-Woodruff assay, lymphocyte adherence to immunoprecipitated CD44 and PSGL-1; format: cell-based; conditions: 80 rpm
# T1 construct: L-selectin naturally expressed on leukocytes; endogenous in cells; host or cells: lymphocytes (rat thoracic duct lymphocytes; human PBMC also prepared)
# T1 sequence (P30836 39-372): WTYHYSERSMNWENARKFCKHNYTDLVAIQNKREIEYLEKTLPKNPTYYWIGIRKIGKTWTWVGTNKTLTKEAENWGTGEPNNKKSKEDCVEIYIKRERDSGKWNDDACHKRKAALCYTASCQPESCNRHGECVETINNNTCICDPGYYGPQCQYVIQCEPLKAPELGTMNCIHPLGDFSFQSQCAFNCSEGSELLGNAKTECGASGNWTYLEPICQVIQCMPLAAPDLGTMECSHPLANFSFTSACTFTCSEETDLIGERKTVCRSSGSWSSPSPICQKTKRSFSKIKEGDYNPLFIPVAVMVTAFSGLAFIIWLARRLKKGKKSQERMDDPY
# Procedure: (§1) These protein spots were then fixed in 3% glutaraldehyde, unreactive aldehyde groups were blocked in 0.2M lysine and slides were kept in RPMI-1640 without NaBicarbonate/2% FBS until ready for testing. Lymphocytes (10^7/ml RPMI-1640 without NaBicarbonate/5% FBS) were overlayed onto these fixed immunoprecipitates and incubated on an orbital shaker at 80 rpm for 30 min. at 4° C. The number of adherent lymphocytes was quantified by light microscopy using an ocular grid under 100× magnification (a minimum of 5 fields/slide, 2 slides/experiment, and 3 separate experiments). Data were presented as the mean number of bound lymphocytes±standard deviation. KG1a CD34 and L-selectin control immunoprecipitates were also tested in this manner. To verify the dependence for sialic acid, glutaraldehyde-fixed spots were treated with Vibrio cholerae neuraminidase (0.1 U/ml RPMI-1640 without NaBicarbonate/2% FBS for lhr at 37° C.).
# (§2) Immunoaffinity purified material (0.75-3 μg/spot) was spotted onto glass slides for analyses in the Stamper-Woodruff assay (See below for assay description). For autoradiographic analysis of immunoprecipitated [^35S]-methionine-radiolabeled CD44 and PSGL-1, immunoprecipitates were spotted onto glass slides, allowed to dry and exposed Kodak BioMax-MR film for 12 h at −80° C. Densitometric analysis (optical density) of the autoradiograms was performed with a Hewlett-Packard Scanj et 5200C scanner and NIH Image processing and analysis program.
# L-selectin [2] = assay: as above; format: cell-based, rat; conditions: equimolar amounts (0.75 μg CD44, 1 μg PSGL-1); 80 rpm
# Procedure: as §1, §2
# L-selectin [3] = assay: Stamper-Woodruff assay of immunoprecipitated KG1a CD44 (Example 7); format: cell-based; conditions: immunoprecipitate spotted onto glass slides
# Source text: To further analyze the L-selectin ligand activity of CD44, we performed Stamper-Woodruff assays using immunoprecipitated CD44 or isotype control (rat lgG)
# immunoprecipitates of KG1 a cells that was spotted onto glass slides as described (Sackstein, R. & Dimitroff, C. J. (2000). Blood. 96, 2765-2774).
# E-selectin = molecular target: T2, E-selectin (Homo sapiens, UniProt P16581); assay: Blot rolling assay with CHO-E cells; format: cell-based; conditions: immunoprecipitated CD44 on Western blot; 3.8 dynes/cm^2
# T2 construct: stably transfected with full-length cDNA encoding human E-selectin; expressed in transfected cells
# T2 sequence (P16581 22-610): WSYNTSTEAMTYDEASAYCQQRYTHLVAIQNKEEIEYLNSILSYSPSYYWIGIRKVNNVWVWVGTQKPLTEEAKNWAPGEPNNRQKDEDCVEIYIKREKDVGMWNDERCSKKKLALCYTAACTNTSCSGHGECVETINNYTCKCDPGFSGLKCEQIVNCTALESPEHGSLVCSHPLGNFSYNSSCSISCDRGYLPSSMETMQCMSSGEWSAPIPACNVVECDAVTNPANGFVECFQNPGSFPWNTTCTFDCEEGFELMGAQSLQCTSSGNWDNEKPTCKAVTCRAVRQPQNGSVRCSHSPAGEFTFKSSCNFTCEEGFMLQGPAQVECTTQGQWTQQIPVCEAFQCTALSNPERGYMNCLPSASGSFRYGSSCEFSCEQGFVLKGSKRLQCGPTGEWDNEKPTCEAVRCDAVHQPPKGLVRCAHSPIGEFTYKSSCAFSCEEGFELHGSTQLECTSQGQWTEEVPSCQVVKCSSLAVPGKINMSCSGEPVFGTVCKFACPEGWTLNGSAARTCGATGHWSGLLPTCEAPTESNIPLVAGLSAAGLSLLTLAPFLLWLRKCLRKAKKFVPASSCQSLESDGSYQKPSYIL
# Procedure: The blot rolling assay was performed as previously described (Dimitroff et al., 2000). Briefly, CHO-E, CHO—P or CHO-Mock transfectants were isolated as described above, washed twice in HBSS and suspended at 10^7/ml in HBSS/10 mM HEPES/2mMCaCl2 (H/H/Ca++)/10% glycerol. Western blots of HPC membrane preparations stained with HECA-452 were rendered transparent by incubating them in H/H/Ca++/10% glycerol. The blots were then placed in the parallel-plate flow chamber, and CHO transfectants (2×10^6/ml) were perfused into the chamber. After allowing the cells to come in contact with the blotting membrane, the flow rate was adjusted to exert a shear stress of 3.8 dynes/cm^2. The viscosity of 10% glycerol adhesion assay medium was considered in the calculation of shear stress values. The number of cells rolling on and between each immunostained banding region was quantified under 100× magnification within each field of view on the video monitor using molecular weight markers (Kaleidoscope Molecular Weight Markers, Bio-Rad Lab.; See Blue® from Novex, Inc.) as guides to help align and visualize the apparent molecular weights of the proteins of interest. A minimum of 3 experiments was performed and results were expressed as the mean±SD of cell rolling/field at 100× magnification.
# L-selectin [4] = assay: Blot rolling assay with L-selectin-expressing lymphocytes; format: cell-based; conditions: 2.3 dynes/cm^2
# Procedure: L-selectin-expressing lymphocytes were isolated as previously described (Oxley, S. M. & Sackstein, R. (1994). Blood. 84:3299-3306; Sackstein, R., Fu, L. and Allen, K. L. (1997) Blood. 89:2773-2781), washed twice in HBSS and suspended at 2×10^7/ml in HBSS/10 mM HEPES/2mMCaCl2 (H/H/Ca^++)/10% glycerol. Cell lysate material is separated by SDS-PAGE and transferred to PVDF under standard blotting conditions. Western blots of KG1a membrane preparations stained with HECA-452, A3D8 or Hermes-1 were rendered transparent by incubating them in H/H/Ca^++/10% glycerol. To study L-selectin-mediated adhesive interactions, the blots were placed in the parallel plate flow chamber and lymphocytes were perfused into the chamber at a shear force of 2.3 dynes/cm^2 and cellular adhesive interactions are observed by video microscopy and analyzed in real time.
# The number of lymphocytes rolling on and between each immunostained banding region was quantified from five independent fields under 200× magnification on the video monitor using molecular weight markers as guides to help align and visualize the proteins of interest. A minimum of 3 experiments were performed, and results were expressed as the mean of cell rolling/field.
substance,measurement,setting,value
"KG1a CD44: glycoform of CD44 with HECA-452 reactive sialylated, fucosylated N-glycans, immunoprecipitated from KG1a cells with Hermes-1",Mean Number of Bound Lymphocytes,"L-selectin [1]; 0.75 μg/spot (PSGL-1 1 μg/spot), 4° C., 100× mag.",357.8
same,fold higher mean number of lymphocytes bound to CD44 than to PSGL-1,L-selectin [1]; p<0.001,3 fold
same,fold greater lymphocyte binding compared with PSGL-1,L-selectin [2],up to 10 fold
same,L-selectin-mediated lymphocyte adherence,L-selectin [3],362±15 bound cells/field
same,E-selectin ligand activity (CHO-E cell rolling) in blot rolling assay,E-selectin,possessed E-selectin ligand activity
same,L-selectin ligand activity (lymphocyte tethering and rolling) in blot rolling assay,L-selectin [4],supported L-selectin ligand interactions
